# Assay results: WO2023002944A1
# Molecular target: RBD domain derived from the Omicron strain (B.1.1.529 strain) (SARS-CoV-2 Omicron strain (B.1.1.529)) (UniProt P0DTC2)
# Experiment: SPR (Biacore T200), as in Example 4: antibody on the chip, RBD as analyte
substance,measurement,value
S309 (antibody),Kd,2.1 nM
